Values of other authors as cited in publication PMC3037027.

Target: U2AF65 UHM (Homo sapiens) (UniProt P26368)
Experiment: ITC

UniProt P26368, sequence (P26368 372-475, one chain of several): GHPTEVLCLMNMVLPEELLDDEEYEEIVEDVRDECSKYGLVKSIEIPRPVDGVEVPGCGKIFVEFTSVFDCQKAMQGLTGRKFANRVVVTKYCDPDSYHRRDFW

Kd: 0.012 µM
Substance: SF1 1-255 (from UniProt Q15637)
